Results on six molecules are retold here after paper PMC6127644.

The target of assay [1] is GluN1Rluc expressed without GluN2 (human) (UniProt Q05586). The assay can be described thus: FRET or BRET; BRET^1 saturation in HEK-293T cells: constant GluN1Rluc cDNA (0.3 ug) without GluN2, increasing cDNA of the YFP-fused calcium sensor.
Assay [2] concerns the target endogenous NMDAR of mouse primary neurons and microglia (mouse (endogenous in primary neurons and microglia)) (UniProt P35438). The assay can be described thus: proximity ligation; in situ PLA on primary microglia from non-transgenic control mice; percent of cells with red dots and dots per cell counted (Figure 6B,C).
The target is the same in assay [3]. Kind of assay: proximity ligation; in situ PLA on primary neurons from non-transgenic control embryos; percent of cells with red dots and dots per cell counted (Figure 5C,D).
For assay [4] the target is unchanged. Kind of assay: proximity ligation; in situ PLA on primary microglia from APP_(Sw,Ind) transgenic mice; percent of cells with red dots and dots per cell counted (Figure 6B,C).
Assay [5] concerns the target NMDAR reconstituted from GluN1Rluc and GluN2B (human) (UniProt Q05586). The assay can be described thus: FRET or BRET; BRET^2 saturation in HEK-293T cells: constant GluN1-RLuc and GluN2B cDNA, increasing NCS1-GFP^2 cDNA; 5 uM Deep Blue C.
The target in assay [6] is endogenous NMDAR of mouse primary neurons and microglia (mouse (endogenous in primary neurons and microglia)) (UniProt P35438). The assay can be described thus: proximity ligation; in situ PLA on primary neurons from APP_(Sw,Ind) transgenic embryos; percent of cells with red dots and dots per cell counted (Figure 5C,D).

Regarding “NCS1YFP fusion protein (from UniProt P62166 1-190) (natural protein)”, the BRET50 in assay [1] came out at 30.

In the case of “endogenous calmodulin of mouse primary neurons and microglia (from UniProt P0DP26 1-149) (natural protein)”, in assay [2], the PLA red dots per cell containing dots (red dots/cell containing dots) came out at 3 and the percent of microglial cells with PLA complexes is 35%. In addition, in assay [3], the percent of neurons with PLA complexes was 77%. Besides, in assay [4], the PLA red dots per cell containing dots (red dots/cell containing dots) stood at 6 and the percent of microglial cells with PLA complexes is 65%.

Regarding “CaM-YFP fusion protein (from UniProt P0DP23 1-149) (natural protein)”, the BRET50 in assay [1] is 3.5.

“NCS1GFP^2 fusion protein (from UniProt P62166 1-190) (natural protein)” showed a BRET50 in assay [5] of 35.

As to “endogenous NCS1 of mouse primary neurons and microglia (from UniProt Q8BNY6 1-190) (natural protein)”, the PLA clusters per cell (clusters per cell) in assay [3] came to 2; in assay [6] it was 5.5. Also, the values for the percent of neurons with PLA complexes in assay [3] and in assay [6] were 21% and 68%, respectively.

B1: endogenous calneuron-1 of mouse primary neurons (natural protein)
chain: MRLPEQPGDGKPENETKGDQETPERGEEPRRSPAPDFPTWEKMPFHHVTAGLLYKGNYLNRSLSAGSDSEQLANISVEELDEIREAFRVLDRDGNGFISKQELGMAMRSLGYMPSEVELAIIMQRLDMDGDGQVDFDEFMTILGPKLVSSEGRDGFLGNTIDSIFWQFDMQRVTLEELKHILYHAFRDHLTMKDIENIIINEEESLNETSGNCQTEFEGVHSQKQNRQTCVRKSLICAFAMAFIISVMLIAANQILRSGME
With B1, the percent of neurons with PLA complexes in assay [3] came to 14%.
